Reference: publication doi:10.1101/2023.01.08.523187 (bioRxiv, 2023)
Changes are numbered by the printed parent chain.

B1: Candidate 2 (de novo designed HCDR3, IgG1 mAb) (antibody, V domains shown)
VH: EVQLVESGGGLVQPGGSLRLSCAASGFNIKDTYIHWVRQAPGKGLEWVARIYPTNGYTRYADSVKGRFTISADTSKNTAYLQMNSLRAEDTAVYYCARYYYGFYYFDYWGQGTLVTVSS
VL: not shown
B2: Candidate 3 (de novo designed HCDR3, IgG1 mAb) (antibody, V domains shown)
VH: B1 VH with Y99W, Y100G, Y101N, G102Y, F103Y, F106M
VL: not shown

What was measured:
[1] = molecular target: Canine HER2 (Canis lupus familiaris, UniProt O18735); assay: SPR
[2] = molecular target: HER2 on HER2+ SK-OV-3 ovarian cancer cells (Homo sapiens, SK-OV-3 cells, UniProt P04626); assay: ELISA
[3] = molecular target: Wildtype HER2 domain IV fragment (residues 510-629 of human HER2) (Homo sapiens, UniProt P04626); assay: SPR

Binder | binding result [1] | fold change of EC50 against trastuzumab [2] | binding result [3]
B1 | binds | ~3 fold | 
B2 |  |  | binds
